Patent publication US20200308294A1 (published 2020)

Key:
VEGF = VEGF (UniProt P15692); assay: VEGF co-incubated with AB160, particulate removed, free VEGF in the supernatant measured by ELISA
[1] = target: AB160 (nanoparticle of albumin-bound paclitaxel and bevacizumab, ratio about 10:4, average size 160 nm) (UniProt P02768); assay: flow cytometry of particles stained with goat anti-mouse IgG and PE detection
[2] = target: ABRAXANE (albumin-bound paclitaxel) (UniProt P02768); assay: flow cytometry of particles stained with goat anti-mouse IgG and PE detection; ABX alone as comparison
[3] = target: T1, ABRAXANE (albumin-bound paclitaxel) (UniProt P02768 25-609, non-covalently bound paclitaxel (nanoparticle of about 130 nm)); assay: VEGF co-incubated with ABX for 2 hours, particulate spun down, free VEGF in the supernatant measured by ELISA
T1 construct: A nanoparticle of many albumin molecules with paclitaxel, not a single protein; also called ABX; Paclitaxel Albumin-stabilized Nanoparticle Formulation
Description: The VEGF was incubated with the nanoparticles for 2 hours at room temperature. The suspension was spun at 6000 rpm for 15 minutes, supernatants were collected and free VEGF was measured by ELISA. Briefly, ELISA plates were coated with capture antibody overnight at 4° C. Plates were washed, blocked and standards and samples were added. After washing, detection antibody was added and plates were developed with substrate (R and D Systems, Minneapolis, Minn.). […] The concentration of unbound VEGF was determined with a standard curve from 0 to 2000 μg/ml.

Molecule: AB160 (nanoparticle of albumin-bound paclitaxel and bevacizumab, ratio about 10:4, average size 160 nm) (from UniProt P02768 25-609)
- % VEGF unbound (VEGF): < 10%

Molecule: goat anti-mouse IgG (antibody)
- % positive [1]: 41.2%
- % positive [2]: 6.7%

B1: VEGF (ligand, UniProt P15692-4 27-191, looked up)
chain: APMAEGGGQNHHEVVKFMDVYQRSYCHPIETLVDIFQEYPDEIEYIFKPSCVPLMRCGGCCNDEGLECVPTEESNITMQIMRIKPHQGQHIGEMSFLQHNKCECRPKKDRARQENPCGPCSERRKHLFVQDPQTCKCSCKNTDSRCKARQLELNERTCRCDKPRR
notes: Soluble VEGF added to the nanoparticles
- binding result [3]: no binding (tested: >80% VEGF unbound)
